Experimental data reported in paper PMC5785985, “Molecular snapshots of APE1 proofreading mismatches and removing DNA damage”.

Assays:
APE1 (ΔAPE1 C138A) [1] = target: T1, APE1 (ΔAPE1 C138A) (Homo sapiens, UniProt P27695 44-318, C138A); test: X-ray crystallography (2.6 Å); Crystallization: 7-14% PEG 20K, 100 mM sodium citrate pH 5.0, 15% glycerol, 5 mM CaCl2, 20 °C; 0.56 mM DNA, 10-12 mg/ml APE1; data at 100 K; details: protein: recombinant; nicked duplex, three strands 1:1:1, blunt ends, fully paired
APE1 (ΔAPE1 C138A) [2] = target: T1, APE1 (ΔAPE1 C138A); test: X-ray crystallography (2.3 Å); MgCl2 soak 2.5 h, no metal resolved; Crystallization: 7-14% PEG 20K, 100 mM sodium citrate pH 5.0, 15% glycerol, 5 mM CaCl2, 20 °C; 0.56 mM DNA, 10-12 mg/ml APE1; data at 100 K; details: protein: recombinant; 1-nt gapped duplex, three strands, blunt ends
APE1 (ΔAPE1 C138A) [3] = target: T1, APE1 (ΔAPE1 C138A); test: X-ray crystallography (2.10 Å); no metal resolved; Crystallization: 7-14% PEG 20K, 100 mM sodium citrate pH 5.0, 15% glycerol, 5 mM CaCl2, 20 °C; 0.56 mM DNA, 10-12 mg/ml APE1; data at 100 K; details: protein: recombinant; nicked duplex, three strands 1:1:1, blunt ends, C/T mismatch at 3' end of nick
[4] = target: APE1 F266A (ΔAPE1 C138A F266A) (Homo sapiens, UniProt P27695 44-318, C138A;F266A); test: X-ray crystallography; Crystallization: 7-14% PEG 20K, 100 mM sodium citrate pH 5.0, 15% glycerol, 5 mM CaCl2, 20 °C; 0.56 mM DNA, 10-12 mg/ml APE1; data at 100 K; details: protein: recombinant; nicked duplex, three strands 1:1:1, blunt ends, C/T mismatch at 3' end of nick
APE1 (ΔAPE1 C138A) [5] = target: T1, APE1 (ΔAPE1 C138A); test: X-ray crystallography; 5 mM CaCl2, no metal resolved; Crystallization: 7-14% PEG 20K, 100 mM sodium citrate pH 5.0, 15% glycerol, 5 mM CaCl2, 20 °C; 0.56 mM DNA, 10-12 mg/ml APE1; data at 100 K; details: protein: recombinant; nicked duplex, three strands 1:1:1, blunt ends, C/T mismatch at 3' end of nick

T1 sequence (P27695 44-318 C138A): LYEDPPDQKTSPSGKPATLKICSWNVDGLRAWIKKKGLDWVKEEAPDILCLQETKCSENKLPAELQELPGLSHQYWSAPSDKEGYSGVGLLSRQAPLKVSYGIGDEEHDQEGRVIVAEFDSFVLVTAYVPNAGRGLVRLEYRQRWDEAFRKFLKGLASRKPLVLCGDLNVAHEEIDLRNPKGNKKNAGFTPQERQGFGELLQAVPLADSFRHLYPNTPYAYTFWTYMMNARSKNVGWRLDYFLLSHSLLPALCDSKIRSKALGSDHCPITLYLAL
Chain of APE1 F266A (ΔAPE1 C138A F266A) (P27695 44-318 C138A/F266A): as the sequence (P27695 44-318 C138A) above, with F223A counted along it

B1: 21-mer nicked duplex, 3' C/G match (dsDNA)
DNA 1: GGATCCGTCGAGCGCATCAGC
DNA 2: GCTGATGCGC
DNA 3: TCGACGGATCC
modifications: 5'-phosphate on strand 3
- binding result (APE1 (ΔAPE1 C138A) [1]): binds

B2: 21-mer duplex with 1-nt gap (exo product) (dsDNA)
DNA 1: GGATCCGTCGATCGCATCAGC
DNA 2: GCTGATGCG
DNA 3: TCGACGGATCC
modifications: 5'-phosphate on strand 3; 3'-OH on strand 2
- binding result (APE1 (ΔAPE1 C138A) [2]): binds

B3: 21-mer nicked duplex, 3' C/T mismatch, phosphorothioate (dsDNA)
DNA 1: GGATCCGTCGATCGCATCAGC
DNA 2: GCTGATGCGC
DNA 3: TCGACGGATCC
modifications: phosphorothioate 5' to the 3'-terminal C of strand 2 (Sp and Rp); 5'-phosphate on strand 3
- binding result (APE1 (ΔAPE1 C138A) [3]): binds

B4: 21-mer nicked duplex, 3' C/T mismatch (F266A crystal) (dsDNA)
DNA 1: GGATCCGTCGATCGCATCAGC
DNA 2: GCTGATGCGC
DNA 3: TCGACGGATCC
modifications: 5'-phosphate on strand 3; phosphorothioate not stated for this crystal
- binding result [4]: binds

B5: 21-mer nicked duplex, 3' C/T mismatch (dsDNA)
DNA 1: GGATCCGTCGATCGCATCAGC
DNA 2: GCTGATGCGC
DNA 3: TCGACGGATCC
modifications: 5'-phosphate on strand 3
- binding result (APE1 (ΔAPE1 C138A) [5]): binds
